{"source": "patent US20220064321A1", "key": {"[1]": {"target": "CD16a on effector cells NK92MI-CD16a (UniProt P08637)", "sequence (P08637 17-254 limits assumed)": "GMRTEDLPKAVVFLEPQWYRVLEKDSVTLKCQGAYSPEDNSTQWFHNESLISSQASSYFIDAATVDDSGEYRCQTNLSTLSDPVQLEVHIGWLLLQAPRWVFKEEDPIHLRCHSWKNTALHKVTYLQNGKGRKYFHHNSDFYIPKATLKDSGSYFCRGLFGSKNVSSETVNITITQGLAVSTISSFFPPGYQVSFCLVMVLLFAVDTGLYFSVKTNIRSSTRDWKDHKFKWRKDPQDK", "experiment": "cell-based or functional assay"}, "[2]": {"target": "FcγRIIIa(V158) (Sino Biological Inc, 10389-H08C1) (UniProt P08637)", "sequence (P08637 17-208 F176V limits assumed)": "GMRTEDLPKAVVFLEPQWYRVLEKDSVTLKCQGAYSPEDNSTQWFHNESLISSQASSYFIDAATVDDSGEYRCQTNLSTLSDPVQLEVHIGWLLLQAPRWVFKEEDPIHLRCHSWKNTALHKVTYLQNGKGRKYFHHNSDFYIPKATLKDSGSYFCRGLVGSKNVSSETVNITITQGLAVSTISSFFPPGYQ", "experiment": "binding ELISA; His-tagged FcγRIIIa captured by anti-His antibody, IgG pre-complexed with goat F(ab')2 anti-human-κ, HRP anti-human F(ab')2 detection"}}}
{"substance": "RITUXAN® (rituximab) (antibody)", "values": [{"measurement": "ADCC Target cell: Daudi, EC50", "setting": "[1]", "value": 4.53, "unit": "ng/mL"}, {"measurement": "ADCC Target cell: Raji, EC50", "setting": "[1]", "value": 0.345, "unit": "ng/mL"}, {"measurement": "EC50", "setting": "[2]", "value": 194, "unit": "ng/mL"}]}
